Blank lines part the entries; values can stand above or below the binder they belong to.
Experiments:
human MSLN-His-Avi [1] = target: T1, human MSLN-His-Avi (human, UniProt Q13421 296-598, single biotin (BirA) in the biotinylated form); assay: SPR (Biacore), MSLN immobilised, mAb^2 injected
T1 construct: Monomeric, made in HEK293-6E; Used both immobilised and in solution; also called hMSLN-His-Avi; biotinylated hMSLN-His-Avi
Description: (§1) Human MSLN-His-Avi was immobilised on flow cell 2 on a CM5 Series S BIAcore sensor chip (GE Healthcare, BR100530) using an amine coupling kit (GE Healthcare, BR10050) to approximately 200 response units (RU). Flow cell 1 was left blank for subtraction. HEK293-6E supernatants or purified proteins were adjusted with HBS-EP+(GE Healthcare) to approximately 50 nM anti-MSLN mAb per sample. Samples were injected over flow cell 1 and 2 for 2.5 min at 30 μl/min and then allowed to dissociate in HBS-EP buffer for 2.5 min. Regeneration was achieved by injecting 10 mM glycine pH 1.5 (GE Healthcare, BR100354) for 30 seconds at a rate of 30 μl/min. Subtracted data (flow cell 2−flow cell 1) were analysed using BIAevaluation 3.2 Software (GE Healthcare).
(§2) Binding of the selected anti-MSLN clones in mAb² format, to recombinant human and cyno MSLN-His-Avi antigen was measured by SPR using a Biacore T200 processing unit (GE Healthcare). As previously described, it was desirable to bind more strongly to immobilised antigen than to soluble antigen. To assess the binding properties of the clones, binding kinetics to immobilised MSLN antigen were determined as described in section 2.1.2 and compared to the kinetics obtained when MSLN antigens in solution bound to captured clones.

human MSLN-His-Avi [2] = target: T1, human MSLN-His-Avi; assay: ratio of the two SPR KD
Description: as §1, §2
(§3) For the capture experiments, clones in mAb² format were captured using a BIAcore sensor series S chip Protein G (GE Healthcare, 29179315). mAb² diluted in HBS-EP buffer (GE Healthcare, BR100188) containing 900 mM […] at 1 μg/ml, were injected individually on flow cell 2, 3 and 4 at 30 μl/min to achieve a response of approximately 100 RU. G1-AA/HeID1.3 was captured on flow cell 1. The recombinant human and cyno MSLN-His-Avi (section 1.1), diluted in HBS-EP buffer containing 900 mM […], were injected on flow cell 1, 2, 3 or 4 as appropriate at a concentration range of 1000 nM to 0.051 nM with 3-fold dilutions for 5 minutes at 70 μl/min and then allowed to dissociate in buffer for 5 minutes. Regeneration was achieved by injecting 10 mM glycine pH1.5 (GE Healthcare, BR100354) and surfactant P20 (GE Healthcare, BR-1000-54) for 20 seconds at a rate of 30 μl/min.

[3] = target: T2, cell surface human mesothelin (MSLN) (human, UniProt Q13421 296-598); assay: flow cytometry, NCI-H226 cells
T2 construct: whole, on cells; also called cell surface MSLN
Description: (§4) Cells were centrifuged at 1200 rpm for 3 min and resuspended in ice cold FACS buffer made up of DPBS (Life Technologies, 14190169) and 1% BSA (Sigma-Aldrich, A7906) at 2×10⁶ cells/ml and 50 μl per well was seeded in a 96-well V-bottom plate (Costar, 3894). All mAbs tested were diluted in FACS buffer in 120 μl at a concentration range of 0.01-200 nM (4-fold dilutions). The NCI-H226 cells were then centrifuged, supernatant removed and cells resuspended in 100 μl of each mAb dilution and incubated at 4° C. for 45 min. Cells were washed twice by centrifugation with 150 μl FACS buffer, resuspended in 100 μl containing goat anti-human IgG (γ-chain specific) F(ab′)2 fragment-R-Phycoerythrin antibody (Sigma, P8047) diluted 1:1000 in FACS buffer and incubated at 4° C. for 45 min. The cells were washed once with 150 μl FACS buffer and then with 150 μl DPBS, resuspended in 150 μl DPBS containing DAPI (Biotium, 40043) at 1:10.000 and read on the BDCantoll or iQue (Intellicyt). Data was analysed using FlowJo v10 to determine the signal geometric mean for PE for live cells in each well.
(§5) Cell binding assays using OVCAR-3 cells were performed similarly to the assays described in section 2.4. The effect of the presence of soluble MSLN was tested by pre-incubating the antibodies in the presence or absence of soluble MSLN before mixing with cells and determining if the pre-incubation affected binding to MSLN on the cell surface. […] 60 μl from each well was then added to either FACS buffer alone or to FACS buffer containing 60 μl of 40 nM recombinant hMSLN (R&D systems, 3265-MS-050) (to give a final concentration of 20 nM hMSLN) and pre-incubated at room temperature for 1 hour before 100 μl was added to the cells. Bound antibody was detected using goat anti-human anti-Fcγ Alexa-Fluor 488 (Jackson Immunoresearch, 109-546-098).
(§6) The method used was exactly as described in section 3.1.4.

cynomolgus MSLN-His-Avi = target: T3, cynomolgus MSLN-His-Avi (cynomolgus, single biotin (BirA) in the biotinylated form); assay: SPR (Biacore), mAb^2 captured on Protein G, MSLN in solution injected
T3 construct: Monomeric, made in HEK293-6E; also called cMSLN-His-Avi; cyno MSLN-His-Avi
T3 chain: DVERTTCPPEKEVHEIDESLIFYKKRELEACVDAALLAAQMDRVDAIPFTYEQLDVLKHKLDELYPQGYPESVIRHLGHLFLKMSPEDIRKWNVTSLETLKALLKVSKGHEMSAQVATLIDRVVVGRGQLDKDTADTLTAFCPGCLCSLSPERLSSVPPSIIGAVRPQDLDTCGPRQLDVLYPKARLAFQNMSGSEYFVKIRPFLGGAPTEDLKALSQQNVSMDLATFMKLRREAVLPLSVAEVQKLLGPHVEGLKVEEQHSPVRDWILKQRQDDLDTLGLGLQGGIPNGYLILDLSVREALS
Description: as §2
as §3, with “μl/min. Subtracted data (flow cell 2−flow cell 1, flow cell 3−flow cell 1, or flow cell 4−flow cell 1) were analysed using BIAevaluation 3.2 Software (GE Healthcare) to identify binding using the model 1:1 binding, local Rmax and with refractive index (RI) constant 0.” for “μl/min.”

human MSLN-His-Avi [4] = target: T1, human MSLN-His-Avi; assay: as above
Description: as §2
as §3, with “μl/min. Subtracted data (flow cell 2−flow cell 1, flow cell 3−flow cell 1, or flow cell 4−flow cell 1) were analysed using BIAevaluation 3.2 Software (GE Healthcare) to identify binding using the model 1:1 binding, local Rmax and with refractive index (RI) constant 0.” for “μl/min.”

[5] = target: T2, cell surface human mesothelin (MSLN); assay: flow cytometry, NCI-H226 cells + 20 nM soluble MSLN
Description: as §4, §5, §6

T1 sequence (Q13421 other isoform, or with tags, fused parts or gaps): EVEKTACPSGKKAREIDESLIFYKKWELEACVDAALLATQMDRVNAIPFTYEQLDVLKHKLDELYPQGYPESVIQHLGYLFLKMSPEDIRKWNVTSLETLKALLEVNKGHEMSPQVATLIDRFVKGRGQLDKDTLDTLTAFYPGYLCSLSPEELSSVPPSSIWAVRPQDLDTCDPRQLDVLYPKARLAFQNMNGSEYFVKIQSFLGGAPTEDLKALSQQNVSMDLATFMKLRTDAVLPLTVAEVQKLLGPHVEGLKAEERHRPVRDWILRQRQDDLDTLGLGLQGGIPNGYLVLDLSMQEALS
T2 sequence (Q13421 other isoform, or with tags, fused parts or gaps limits assumed): as the sequence (Q13421 other isoform, or with tags, fused parts or gaps) above

B1: FS22-053-008-AA/FS28-256-012 mAb^2 (bispecific antibody, human IgG1, kappa, L234A L235A, V domains shown)
VH: EVQLLESGGGLVQPGGSLRLSCAASGFTFTHTYMSWVRQAPGKGLEWVSNISPTYSTTNYADSVKGRFTISRDNNKNTLYLQMNSLRAEDTAVYYCARYNAYHAALDYWGQGTLVTVSS
VL: EIVLTQSPGTLSLSPGERATLSCRASQSVSSSYLAWYQQKPGQAPRLLIYGASSRATGIPDRFSGSGSGTDFTLTISRLEPEDFAVYYCQQSYYYPITFGQGTKVEIKR
Kd (human MSLN-His-Avi [1]): 4.1 nM
Ratio of KD in solution/immobilised for human MSLN-His-Avi (human MSLN-His-Avi [2]): 209
EC50 [3]: 8.48 nM
Emax (MFI) [3]: 969000 MFI
Kd (cynomolgus MSLN-His-Avi): 717 nM
Kd (human MSLN-His-Avi [4]): 861 nM
EC50 [5]: 4.83 nM
Emax (MFI) [5]: 790000 MFI

B3: FS22-053-008-AA/FS28-256-024 mAb^2 (bispecific antibody, human IgG1, kappa, L234A L235A, V domains shown)
VH: EVQLLESGGGLVQPGGSLRLSCAASGFTFTHTYMSWVRQAPGKGLEWVSNISPTYSTTNYADSVKGRFTISRDNNKNTLYLQMNSLRAEDTAVYYCARYNAYHAALDYWGQGTLVTVSS
VL: EIVLTQSPGTLSLSPGERATLSCRASQSVSSSYLAWYQQKPGQAPRLLIYGASSRATGIPDRFSGSGSGTDFTLTISRLEPEDFAVYYCQQALGYPHTFGQGTKVEIKR
Kd (human MSLN-His-Avi [1]): 6.7 nM
Ratio of KD in solution/immobilised for human MSLN-His-Avi (human MSLN-His-Avi [2]): 14.3
EC50 [3]: 3.88 nM
Emax (MFI) [3]: 813000 MFI
Kd (cynomolgus MSLN-His-Avi): 56.7 nM
Kd (human MSLN-His-Avi [4]): 95.4 nM
EC50 [5]: 3.91 nM
Emax (MFI) [5]: 669000 MFI

B6: FS22-053-008-AA/FS28-256-021 mAb^2 (bispecific antibody, human IgG1, kappa, L234A L235A, V domains shown)
VH: EVQLLESGGGLVQPGGSLRLSCAASGFTFTHTYMSWVRQAPGKGLEWVSNISPTYSTTNYADSVKGRFTISRDNNKNTLYLQMNSLRAEDTAVYYCARYNAYHAALDYWGQGTLVTVSS
VL: EIVLTQSPGTLSLSPGERATLSCRASQSVSSSYLAWYQQKPGQAPRLLIYGASSRATGIPDRFSGSGSGTDFTLTISRLEPEDFAVYYCQQHNQYPNTFGQGTKVEIKR
Kd (human MSLN-His-Avi [1]): 3.3 nM
Ratio of KD in solution/immobilised for human MSLN-His-Avi (human MSLN-His-Avi [2]): 7
EC50 [3]: 3.29 nM
Emax (MFI) [3]: 919000 MFI
Kd (cynomolgus MSLN-His-Avi): 16.2 nM
Kd (human MSLN-His-Avi [4]): 23.2 nM
EC50 [5]: 7.65 nM
Emax (MFI) [5]: 839000 MFI

More lines, in order of falling Kd (human MSLN-His-Avi [1]), values ahead:

Kd (human MSLN-His-Avi [1]): 3.3 nM
Ratio of KD in solution/immobilised for human MSLN-His-Avi (human MSLN-His-Avi [2]): 20.8
EC50 [3]: 3.29 nM
Emax (MFI) [3]: 856000 MFI
Kd (cynomolgus MSLN-His-Avi): 32.6 nM
Kd (human MSLN-His-Avi [4]): 68.6 nM
EC50 [5]: 3.9 nM
Emax (MFI) [5]: 716000 MFI
B5: FS22-053-008-AA/FS28-256-023 mAb^2 (bispecific antibody, human IgG1, kappa, L234A L235A, V domains shown)
VH: EVQLLESGGGLVQPGGSLRLSCAASGFTFTQTYMSWVRQAPGKGLEWVSNISPTYSTTNYADSVKGRFTISRDNSKNTLYLQMNSLRAEDTAVYYCARYNAYQIGLDYWGQGTLVTVSS
VL: EIVLTQSPGTLSLSPGERATLSCRASQSVSSSYLAWYQQKPGQAPRLLIYGASSRATGIPDRFSGSGSGTDFTLTISRLEPEDFAVYYCQQHNQYPNTFGQGTKVEIKR

Kd (human MSLN-His-Avi [1]): 3.2 nM
Ratio of KD in solution/immobilised for human MSLN-His-Avi (human MSLN-His-Avi [2]): 19.5
EC50 [3]: 2.43 nM
Emax (MFI) [3]: 741000 MFI
Kd (cynomolgus MSLN-His-Avi): 33.2 nM
Kd (human MSLN-His-Avi [4]): 62.3 nM
EC50 [5]: 4.59 nM
Emax (MFI) [5]: 715000 MFI
B2: FS22-053-008-AA/FS28-256-026 mAb^2 (bispecific antibody, human IgG1, kappa, L234A L235A, V domains shown)
VH: EVQLLESGGGLVQPGGSLRLSCAASGFTFTQTYMSWVRQAPGKGLEWVSNISPTYSTTNYADSVKGRFTISRDNSKNTLYLQMNSLRAEDTAVYYCARYNAYQIGLDYWGQGTLVTVSS
VL: EIVLTQSPGTLSLSPGERATLSCRASQSVSSSYLAWYQQKPGQAPRLLIYGASSRATGIPDRFSGSGSGTDFTLTISRLEPEDFAVYYCQQALGYPHTFGQGTKVEIKR

Kd (human MSLN-His-Avi [1]): 1.1 nM
Ratio of KD in solution/immobilised for human MSLN-His-Avi (human MSLN-His-Avi [2]): 5.3
EC50 [3]: 3.93 nM
Emax (MFI) [3]: 987000 MFI
Kd (cynomolgus MSLN-His-Avi): 0.7 nM
Kd (human MSLN-His-Avi [4]): 6 nM
EC50 [5]: 21.8 nM
Emax (MFI) [5]: 964000 MFI
B4: FS22-053-008-AA/FS28-256-027 mAb^2 (bispecific antibody, human IgG1, kappa, L234A L235A, V domains shown)
VH: EVQLLESGGGLVQPGGSLRLSCAASGFTFTHTYMSWVRQAPGKGLEWVSNISPTYSTTNYADSVKGRFTISRDNNKNTLYLQMNSLRAEDTAVYYCARYNAYHAALDYWGQGTLVTVSS
VL: EIVLTQSPGTLSLSPGERATLSCRASQSVSSSYLAWYQQKPGQAPRLLIYGASSRATGIPDRFSGSGSGTDFTLTISRLEPEDFAVYYCQQTVPYPYTFGQGTKVEIKR

From patent US20220267421A1 (INVOX PHARMA, published 2022)
